PMC7112951, “Structures of the ATP-fueled ClpXP proteolytic machine bound to protein substrate” (eLife, 2020)

Molecular target: the molecule itself
Experiment: cryo-EM structure; ClpX^∆N pseudohexamer 4 µM and ClpP14 1.8 µM (2 µM in the results) in EM buffer (20 mM HEPES, pH 7.5, 100 mM KCl, 25 mM MgCl2, 5 mM ATPγS), 5 min at 25°C before vitrification; doubly capped complexes analysed

B1: one ClpX^∆N E185Q subunit (unit) of the single-chain pseudohexamer (domain or fragment)
chain: not shown
notes: ClpX, E. coli K12, residues 62-424 (ClpX^∆N); In the sample the six units are joined on one chain by six-residue linkers; written alone for the contacts between neighbouring units; also called ClpX^∆N subunit; subunits A-F; source: E. coli strain ER2566, purified, as part of the single-chain pseudohexamer m1
stoichiometry N: 6
